Data taken from article PMC9712776 (2022).

B1: dynamin-2 (human Dyn2 isoform 1), wild type [human] / GST-tagged SH3 domain of endophilin [mouse] (parent complex)
chain 1: MGNRGMEELIPLVNKLQDAFSSIGQSCHLDLPQIAVVGGQSAGKSSVLENFVGRDFLPRGSGIVTRRPLILQLIFSKTEHAEFLHCKSKKFTDFDEVRQEIEAETDRVTGTNKGISPVPINLRVYSPHVLNLTLIDLPGITKVPVGDQPPDIEYQIKDMILQFISRESSLILAVTPANMDLANSDALKLAKEVDPQGLRTIGVITKLDLMDEGTDARDVLENKLLPLRRGYIGVVNRSQKDIEGKKDIRAALAAERKFFLSHPAYRHMADRMGTPHLQKTLNQQLTNHIRESLPALRSKLQSQLLSLEKEVEEYKNFRPDDPTRKTKALLQMVQQFGVDFEKRIEGSGDQVDTLELSGGARINRIFHERFPFELVKMEFDEKDLRREISYAIKNIHGVRTGLFTPDLAFEAIVKKQVVKLKEPCLKCVDLVIQELINTVRQCTSKLSSYPRLREETERIVTTYIREREGRTKDQILLLIDIEQSYINTNHEDFIGFANAQQRSTQLNKKRAIPNQGEILVIRRGWLTINNISLMKGGSKEYWFVLTAESLSWYKDEEEKEKKYMLPLDNLKIRDVEKGFMSNKHVFAIFNTEQRNVYKDLRQIELACDSQEDVDSWKASFLRAGVYPEKDQAENEDGAQENTFSMDPQLERQVETIRNLVDSYVAIINKSIRDLMPKTIMHLMINNTKAFIHHELLAYLYSSADQSSLMEESADQAQRRDDMLRMYHALKEALNIIGDISTSTVSTPVPPPVDDTWLQSASSHSPTPQRRPVSSIHPPGRPPAVRGPTPGPPLIPVPVGAAASFSAPPIPSRPGPQSVFANSDLFPAPPQIPSRPVRIPPGIPPGVPSRRPPAAPSRPTIIRPAEPSLLD
chain 2: not shown

Variants of: B1
Assay: GST pulldown; 12 µg GST-endophilin-SH3, 6 µg purified Dyn2; parent: 1; read off a plot

ratio to parent | Variant
~0.93 | chain 1 S848E
~1.1 | chain 1 S848A
